Key:
[1] = biological target: T1, E2 sRGN (synthetic (Staphylococcus Cas9 chimera)); experiment: FP; cleavage; specificity profile comparable to SluCas9
T1 chain: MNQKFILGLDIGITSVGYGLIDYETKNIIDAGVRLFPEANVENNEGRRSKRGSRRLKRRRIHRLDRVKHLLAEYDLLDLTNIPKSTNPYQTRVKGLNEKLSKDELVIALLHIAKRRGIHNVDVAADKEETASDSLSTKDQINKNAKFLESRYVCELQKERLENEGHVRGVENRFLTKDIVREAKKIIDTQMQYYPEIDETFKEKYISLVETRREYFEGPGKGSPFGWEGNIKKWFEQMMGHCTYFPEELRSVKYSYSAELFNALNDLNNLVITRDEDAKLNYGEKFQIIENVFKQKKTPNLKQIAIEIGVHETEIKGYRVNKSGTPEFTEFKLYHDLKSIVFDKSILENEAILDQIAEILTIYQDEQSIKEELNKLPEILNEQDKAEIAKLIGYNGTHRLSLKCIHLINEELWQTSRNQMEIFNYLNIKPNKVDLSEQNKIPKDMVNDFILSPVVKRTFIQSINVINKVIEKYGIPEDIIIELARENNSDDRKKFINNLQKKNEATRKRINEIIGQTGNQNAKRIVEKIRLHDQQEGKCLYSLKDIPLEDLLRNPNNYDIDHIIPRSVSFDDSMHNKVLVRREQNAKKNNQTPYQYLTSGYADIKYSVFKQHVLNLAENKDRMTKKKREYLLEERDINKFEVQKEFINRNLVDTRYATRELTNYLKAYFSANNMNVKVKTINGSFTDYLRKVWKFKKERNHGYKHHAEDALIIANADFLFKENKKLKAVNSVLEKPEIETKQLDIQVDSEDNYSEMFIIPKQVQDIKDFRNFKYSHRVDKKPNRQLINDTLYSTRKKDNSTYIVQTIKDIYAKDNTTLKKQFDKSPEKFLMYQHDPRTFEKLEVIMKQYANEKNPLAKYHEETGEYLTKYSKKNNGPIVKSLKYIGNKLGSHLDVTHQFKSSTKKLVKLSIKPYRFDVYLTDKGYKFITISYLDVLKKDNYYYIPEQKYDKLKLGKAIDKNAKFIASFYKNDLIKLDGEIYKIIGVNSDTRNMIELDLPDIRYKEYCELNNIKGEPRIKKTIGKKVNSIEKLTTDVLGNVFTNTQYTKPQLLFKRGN
Protocol: (§1) Oligonucleotide duplexes were prepared in 10 mM Tris (pH 7.8) 50 mM NaCl as 10 μM solutions (from 100 μM stocks) and annealed at 95° C. for 5 minutes then slowly cooled down in thermo cycler (6° C. per minute). The stocks were subsequently diluted in 10 mM Tris (pH 7.8), 50 mM NaCl, and 0.05% Pluronic. 20 μl of each oligonucleotide (20 nM) was immobilized on streptavidin coated plates, washed twice after 10 minutes and then incubated with a 20 μL sample for a kinetics of 60 minutes (excitation wavelength: 635 nm; emission wavelength: 670 nm). Prior to the cleavage the reaction RNP was formed. RNP was assembled by mixing 12.03 μl of the respective sRGN protein (1.21 μg/μl) in 3200 μl 1×PBS+5 mM MgCl₂ with and without sgRNA (SEQ ID NO: 128; 60 nM final concentration), RNPs were incubated 5 min at 37° C. prior to the reaction. 20 μl RNP was added to each well and the polarization was measured for 60 minutes at 37° C.
(§2) The cleavage kinetics were analyzed by calculating the initial slope of the oligonucleotide cleavage reaction. The slopes were calculated for each of the 61 substrates and normalized to the value of the on-target substrate (defined as 1). The normalized cleavage values for all 60 off-target substrates where then grouped according to their position. […]

[2] = biological target: T2, Gib11Spa-3 sRGN (synthetic (Staphylococcus Cas9 chimera)); experiment: FP; cleavage; 5 mM MgCl2, 37 C; PAM GGGG on substrate
T2 chain: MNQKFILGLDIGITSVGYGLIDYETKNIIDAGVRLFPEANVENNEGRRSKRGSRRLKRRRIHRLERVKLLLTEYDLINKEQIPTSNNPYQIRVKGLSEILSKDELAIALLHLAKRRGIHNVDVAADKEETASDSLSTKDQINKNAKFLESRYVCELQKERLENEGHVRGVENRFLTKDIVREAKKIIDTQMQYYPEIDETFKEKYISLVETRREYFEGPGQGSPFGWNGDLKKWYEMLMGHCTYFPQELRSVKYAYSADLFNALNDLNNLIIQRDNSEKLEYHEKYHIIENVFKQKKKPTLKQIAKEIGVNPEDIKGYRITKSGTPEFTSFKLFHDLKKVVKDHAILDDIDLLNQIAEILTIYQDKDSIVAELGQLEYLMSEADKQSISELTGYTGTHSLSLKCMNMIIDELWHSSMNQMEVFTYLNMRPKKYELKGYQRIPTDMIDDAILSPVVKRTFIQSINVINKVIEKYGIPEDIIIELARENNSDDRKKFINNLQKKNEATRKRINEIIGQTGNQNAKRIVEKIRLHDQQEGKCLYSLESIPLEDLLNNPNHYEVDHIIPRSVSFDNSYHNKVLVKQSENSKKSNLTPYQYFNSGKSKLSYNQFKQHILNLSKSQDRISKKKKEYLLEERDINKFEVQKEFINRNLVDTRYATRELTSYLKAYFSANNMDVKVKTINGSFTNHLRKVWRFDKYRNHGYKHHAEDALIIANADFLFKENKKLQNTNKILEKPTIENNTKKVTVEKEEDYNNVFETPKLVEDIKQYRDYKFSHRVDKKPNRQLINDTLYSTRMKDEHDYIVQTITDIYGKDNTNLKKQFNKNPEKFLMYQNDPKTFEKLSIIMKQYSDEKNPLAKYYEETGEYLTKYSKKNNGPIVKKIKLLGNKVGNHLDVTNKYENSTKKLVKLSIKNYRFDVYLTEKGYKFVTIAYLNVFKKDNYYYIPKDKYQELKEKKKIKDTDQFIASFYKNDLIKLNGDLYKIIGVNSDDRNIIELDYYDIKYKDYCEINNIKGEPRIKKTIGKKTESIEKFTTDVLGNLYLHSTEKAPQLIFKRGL
Protocol: as §1, §2

[3] = biological target: T3, Gib11Spa-1 sRGN (synthetic (Staphylococcus Cas9 chimera)); experiment: as above
T3 chain: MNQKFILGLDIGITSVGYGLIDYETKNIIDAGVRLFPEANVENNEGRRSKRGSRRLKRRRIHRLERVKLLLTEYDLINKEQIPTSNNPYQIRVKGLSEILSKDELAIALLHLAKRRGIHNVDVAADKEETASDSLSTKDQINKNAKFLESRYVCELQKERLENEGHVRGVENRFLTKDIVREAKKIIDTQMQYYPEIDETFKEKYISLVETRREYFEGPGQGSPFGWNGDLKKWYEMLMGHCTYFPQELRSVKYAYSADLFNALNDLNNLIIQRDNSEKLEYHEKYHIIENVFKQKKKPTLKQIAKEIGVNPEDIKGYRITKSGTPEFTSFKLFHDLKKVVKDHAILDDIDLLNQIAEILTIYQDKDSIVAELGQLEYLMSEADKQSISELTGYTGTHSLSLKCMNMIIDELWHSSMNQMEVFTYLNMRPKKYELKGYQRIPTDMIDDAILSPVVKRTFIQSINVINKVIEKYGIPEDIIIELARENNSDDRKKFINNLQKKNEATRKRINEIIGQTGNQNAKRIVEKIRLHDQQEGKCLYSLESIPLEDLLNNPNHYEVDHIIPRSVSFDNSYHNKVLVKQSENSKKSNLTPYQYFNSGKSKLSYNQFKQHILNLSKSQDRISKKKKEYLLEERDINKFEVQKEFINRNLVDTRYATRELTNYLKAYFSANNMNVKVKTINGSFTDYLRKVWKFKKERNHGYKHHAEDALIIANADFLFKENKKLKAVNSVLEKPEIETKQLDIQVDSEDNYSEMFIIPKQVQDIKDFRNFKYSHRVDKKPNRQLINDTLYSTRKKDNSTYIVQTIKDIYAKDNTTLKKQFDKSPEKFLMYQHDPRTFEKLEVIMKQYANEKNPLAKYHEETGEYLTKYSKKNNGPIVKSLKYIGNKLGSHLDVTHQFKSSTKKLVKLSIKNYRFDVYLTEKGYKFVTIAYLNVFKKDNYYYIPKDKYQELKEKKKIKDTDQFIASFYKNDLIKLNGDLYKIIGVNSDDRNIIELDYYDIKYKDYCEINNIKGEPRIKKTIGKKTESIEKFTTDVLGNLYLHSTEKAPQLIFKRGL
Protocol: as §1, §2

[4] = biological target: T4, F8 sRGN (synthetic (Staphylococcus Cas9 chimera)); experiment: FP; cleavage; 5 mM MgCl2, 37 C
T4 chain: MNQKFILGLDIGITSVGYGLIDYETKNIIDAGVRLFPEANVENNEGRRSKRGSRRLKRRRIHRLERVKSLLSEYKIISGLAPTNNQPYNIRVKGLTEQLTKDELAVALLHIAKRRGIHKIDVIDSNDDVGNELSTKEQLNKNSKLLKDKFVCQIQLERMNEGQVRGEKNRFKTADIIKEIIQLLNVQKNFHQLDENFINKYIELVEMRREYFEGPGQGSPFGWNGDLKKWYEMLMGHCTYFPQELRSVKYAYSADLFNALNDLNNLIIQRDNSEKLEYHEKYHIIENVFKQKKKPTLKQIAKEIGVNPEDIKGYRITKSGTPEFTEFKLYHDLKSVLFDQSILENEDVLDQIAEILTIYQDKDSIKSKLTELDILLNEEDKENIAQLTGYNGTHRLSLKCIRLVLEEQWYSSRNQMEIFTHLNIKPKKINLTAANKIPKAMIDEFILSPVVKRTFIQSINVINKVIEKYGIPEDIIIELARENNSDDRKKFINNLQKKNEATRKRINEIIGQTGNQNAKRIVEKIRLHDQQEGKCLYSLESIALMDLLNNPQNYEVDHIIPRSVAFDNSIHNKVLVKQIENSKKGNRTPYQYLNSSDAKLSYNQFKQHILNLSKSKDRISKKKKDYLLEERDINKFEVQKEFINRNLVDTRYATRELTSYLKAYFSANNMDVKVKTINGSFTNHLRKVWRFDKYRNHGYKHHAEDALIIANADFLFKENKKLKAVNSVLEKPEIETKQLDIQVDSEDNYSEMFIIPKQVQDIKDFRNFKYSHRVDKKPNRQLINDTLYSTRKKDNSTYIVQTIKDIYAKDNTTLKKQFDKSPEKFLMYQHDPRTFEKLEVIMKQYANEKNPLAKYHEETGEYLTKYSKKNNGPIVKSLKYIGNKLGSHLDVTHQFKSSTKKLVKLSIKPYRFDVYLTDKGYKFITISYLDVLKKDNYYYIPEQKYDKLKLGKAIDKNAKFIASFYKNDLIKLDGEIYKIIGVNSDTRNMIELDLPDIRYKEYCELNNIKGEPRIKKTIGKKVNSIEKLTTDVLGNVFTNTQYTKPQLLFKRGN
Protocol: as §1, §2

[5] = biological target: T5, Gib11 sRGN (synthetic (Staphylococcus Cas9 chimera)); experiment: FP; cleavage; 5 mM MgCl2, 37 C; PAM GGGG on substrate; mismatch values only in figure
T5 chain: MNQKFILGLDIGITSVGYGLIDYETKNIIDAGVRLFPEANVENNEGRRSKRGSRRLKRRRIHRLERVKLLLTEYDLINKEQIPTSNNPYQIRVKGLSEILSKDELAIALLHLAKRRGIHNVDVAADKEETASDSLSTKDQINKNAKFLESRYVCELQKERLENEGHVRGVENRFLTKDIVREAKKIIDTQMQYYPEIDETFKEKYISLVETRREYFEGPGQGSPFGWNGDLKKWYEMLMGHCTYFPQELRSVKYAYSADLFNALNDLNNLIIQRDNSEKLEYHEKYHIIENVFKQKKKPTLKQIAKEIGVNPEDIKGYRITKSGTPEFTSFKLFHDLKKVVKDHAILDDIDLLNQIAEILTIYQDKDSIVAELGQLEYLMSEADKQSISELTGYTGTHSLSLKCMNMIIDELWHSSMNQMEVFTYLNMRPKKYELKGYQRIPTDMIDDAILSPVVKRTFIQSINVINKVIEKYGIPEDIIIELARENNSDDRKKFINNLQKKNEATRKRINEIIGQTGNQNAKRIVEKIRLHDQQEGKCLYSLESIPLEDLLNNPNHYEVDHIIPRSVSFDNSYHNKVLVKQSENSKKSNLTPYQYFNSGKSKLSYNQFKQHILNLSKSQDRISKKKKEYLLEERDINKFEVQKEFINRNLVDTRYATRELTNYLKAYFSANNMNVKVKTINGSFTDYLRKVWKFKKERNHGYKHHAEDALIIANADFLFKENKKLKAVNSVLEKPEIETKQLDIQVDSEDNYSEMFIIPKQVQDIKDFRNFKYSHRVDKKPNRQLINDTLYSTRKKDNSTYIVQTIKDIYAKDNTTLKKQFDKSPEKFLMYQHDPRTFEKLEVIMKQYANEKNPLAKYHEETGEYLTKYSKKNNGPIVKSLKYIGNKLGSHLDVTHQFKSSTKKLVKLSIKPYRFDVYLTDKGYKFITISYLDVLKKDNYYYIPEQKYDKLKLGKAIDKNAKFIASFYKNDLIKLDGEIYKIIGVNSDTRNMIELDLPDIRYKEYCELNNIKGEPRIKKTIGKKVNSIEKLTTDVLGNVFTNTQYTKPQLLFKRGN
Protocol: as §1, §2

Measured: binding result

B1: sgRNA_Ex6 ; R01-1 on-target duplex (ssRNA ; dsDNA)
RNA: GGUGAACGUGGAUGAAGUUGGUUUUAGUACUCUGGAAACAGAAUCUACUGAAACAAGACAAUAUGUCGUGUUUAUCCCAUCAAUUUAUUGGUGGGAUUUUUUUCUAGCAUAACCCCUUGGGGCCUCUAAACGGGUCUUGAGGGGUUUUUU
DNA 1: GGTGAACGTGGATGAAGTTGTGGGGTAC
DNA 2: GCGGTACCCCACAACTTCATCCACGTTCACCGG
binds: [1] | [2] | [3] | [4] | [5]

Source: patent US20210054353, “NOVEL RNA-PROGRAMMABLE ENDONUCLEASE SYSTEMS AND USES THEREOF” (CRISPR THERAPEUTICS AG, published 2021)
